Measurements: the supplement of paper PMC7125110
± gives the standard error. This sample holds only a part of the variants without activity.

B1: glmS ribozyme (parent)
chain: AUAAAAGCGCCAGAACUACAGAAAUGUAGUUGACGAGGAGGAGGUUUAUCGAAUUUUCGGCGGAUGCCUCCAAA

How the values were obtained:
Conditions in all cases: with glucosamine-6-phosphate
glucosamine-6-phosphate [1] = variants of: B1; assay: self-cleavage kobs at 160 uM GlcN6P; higher = faster cleavage; RNA array
How it was run: (§1)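 Over ~14 h at 37 °C, tiles were imaged as glucosamine-6-phosphate (40 μM to 10 mM) in HEPES/KCl/Mg(OAc)2 buffer flowed across sequenced MiSeq chips. The chips carried barcoded ribozyme variants transcribed in situ by E. coli RNA polymerase and tracked with a hybridised Cy3 probe. After normalisation to baseline and to non-cleaving reference variants, one- or two-exponential decay fits of per-tile medians gave kobs. kcat and KM followed from weighted Michaelis–Menten fits across concentrations.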

glucosamine-6-phosphate [2] = variants of: B1; assay: self-cleavage kobs at 10000 uM GlcN6P; higher = faster cleavage; RNA array
How it was run: as §1

glucosamine-6-phosphate [3] = variants of: B1; assay: self-cleavage kobs at 640 uM GlcN6P; higher = faster cleavage; RNA array
How it was run: as §1

glucosamine-6-phosphate [4] = variants of: B1; assay: self-cleavage kobs at 2500 uM GlcN6P; higher = faster cleavage; RNA array
How it was run: as §1

Variant	self-cleavage kobs at 160 uM GlcN6P (glucosamine-6-phosphate [1]) [s⁻¹]	self-cleavage kobs at 10000 uM GlcN6P (glucosamine-6-phosphate [2]) [s⁻¹]	self-cleavage kobs at 640 uM GlcN6P (glucosamine-6-phosphate [3]) [s⁻¹]	self-cleavage kobs at 2500 uM GlcN6P (glucosamine-6-phosphate [4]) [s⁻¹]
U31C G63A	< 1e-05	< 1e-05		
A14G U56G U57C	3.78e-05 ± 1.6e-05		5.18e-05 ± 1.5e-05	0.000269 ± 8.2e-05
C16A A52G G63U G66U	< 1e-05		< 1e-05	
A14G U30A G32A C68A	< 1e-05			
U31C U54C C67U	8.1e-05 ± 1.6e-05		0.000176 ± 3.7e-05	0.000804 ± 0.0002
C16G G51U G60C	< 1e-05		< 1e-05	< 1e-05
A14C G66A C71U	0.000171 ± 5.4e-05		0.000399 ± 9.8e-05	0.00114 ± 0.00023
C16U G29C C67A	0.00011 ± 2.1e-05		0.000258 ± 4.5e-05	0.00106 ± 0.00017
G13U G29A A52C	< 1e-05		< 1e-05	< 1e-05
G13U A15U G44A	< 1e-05		< 1e-05	< 1e-05
U30C G62A C68G	< 1e-05	< 1e-05	< 1e-05	< 1e-05
C16A G60C C67G	< 1e-05			< 1e-05
A12C U56A C67A U69G	8.14e-05 ± 2.1e-05		0.00447 ± 0.0018	0.000144 ± 4.7e-05
U30A G35C	< 1e-05	< 1e-05	< 1e-05	< 1e-05
A12U C16U U54A	0.00397 ± 0.00072		0.00766 ± 0.0025	
G29C U30C G37C C70G	9.14e-05 ± 2.9e-05		0.000358 ± 0.00011	0.000111 ± 3.5e-05
A12G G40U G62C	< 1e-05		< 1e-05	< 1e-05
A14U A33C G59A	< 1e-05		< 1e-05	< 1e-05
C16U U55G U69G	9.72e-05 ± 2.1e-05	4.21e-05 ± 1.4e-05	8.62e-05 ± 2.4e-05	5.05e-05 ± 1.1e-05
A15C C50G G66U	5.42e-05 ± 1.8e-05			
U31G G32A	2.88e-05 ± 1.4e-05	0.00185 ± 0.00031	0.000366 ± 7.2e-05	0.000689 ± 0.00016
G13U G41C A42U U65C	< 1e-05		< 1e-05	< 1e-05
U31G A39C U45A	0.000229 ± 6.4e-05		0.000642 ± 0.0001	0.00161 ± 0.00025
A12G G35U G51U C68G U69A	< 1e-05		< 1e-05	
G13A A64C	< 1e-05	< 1e-05	< 1e-05	< 1e-05
U30G G38C	< 1e-05		< 1e-05	< 1e-05

Variant	self-cleavage kobs at 160 uM GlcN6P (glucosamine-6-phosphate [1]) [s⁻¹]	self-cleavage kobs at 10000 uM GlcN6P (glucosamine-6-phosphate [2]) [s⁻¹]	self-cleavage kobs at 640 uM GlcN6P (glucosamine-6-phosphate [3]) [s⁻¹]	self-cleavage kobs at 2500 uM GlcN6P (glucosamine-6-phosphate [4]) [s⁻¹]
U31A C34A U55A C67G	< 1e-05		< 1e-05	< 1e-05
A15C C34A	< 1e-05	< 1e-05	< 1e-05	< 1e-05
A14U G35C U49G	< 1e-05			
U31A A64U	< 1e-05	4.44e-05 ± 1.1e-05		
C16U A33G C34A A39G	< 1e-05		< 1e-05	
A14U U57C G66U	< 1e-05			
A12G G29A G41C	< 1e-05	< 1e-05	< 1e-05	< 1e-05
A12U A33C A39G C50G A52G	< 1e-05		< 1e-05	
A15C C61U A64U	< 1e-05			
A14C G32U A52C	< 1e-05		< 1e-05	< 1e-05
A14C A15U C70A	0.000105 ± 3.4e-05		0.000263 ± 5.6e-05	0.000232 ± 8.4e-05
U31C U54A C67G	3.53e-05 ± 9.2e-06		8.75e-05 ± 2.2e-05	7.96e-05 ± 1.7e-05
G13A C58G G59U	< 1e-05			
A15G U47G C68G	0.000236 ± 8.5e-05			3e-05 ± 1.3e-05
A12G G35U A42C A48C U57C	< 1e-05			
C16G G44C	< 1e-05		< 1e-05	
A15G C58G G63C C68G	0.000162 ± 4.4e-05			
A12G C34A C50A G60C	< 1e-05			< 1e-05
G13C A48G C71U	< 1e-05			
U30A A39G A48G C61U	< 1e-05			< 1e-05
U30A U54C C71U	0.000251 ± 5.9e-05		0.00109 ± 0.00025	0.00391 ± 0.0014
A12U U56G U57G C58A A64G	5.96e-05 ± 2.1e-05		0.000137 ± 2.4e-05	5.56e-05 ± 2.7e-05
A15G C58A C70U	0.000138 ± 2.8e-05	0.000281 ± 5.3e-05	8.95e-05 ± 1.1e-05	0.000182 ± 4.8e-05
G13C G40U G59C	< 1e-05		< 1e-05	< 1e-05
A14U U30C G43C G66C	< 1e-05			
C16G G38A	< 1e-05	< 1e-05	< 1e-05	

Variant	self-cleavage kobs at 160 uM GlcN6P (glucosamine-6-phosphate [1]) [s⁻¹]	self-cleavage kobs at 10000 uM GlcN6P (glucosamine-6-phosphate [2]) [s⁻¹]	self-cleavage kobs at 640 uM GlcN6P (glucosamine-6-phosphate [3]) [s⁻¹]	self-cleavage kobs at 2500 uM GlcN6P (glucosamine-6-phosphate [4]) [s⁻¹]
C11U G29U G40A	< 1e-05	5.39e-05 ± 1.7e-05	< 1e-05	
A15C U57C G62C	< 1e-05		< 1e-05	
G13U U31A C34A A48C G62U	< 1e-05			
A12U A14C U47A	0.000117 ± 2.3e-05		0.000593 ± 0.00011	0.00107 ± 0.00025
A15C U30A	0.000667 ± 0.00019	0.0299 ± 0.015	0.00307 ± 0.00075	0.0188 ± 0.0047
A15U G38U G59U	< 1e-05			
U30C G43C C68G	7.51e-05 ± 2.2e-05			
G29A U31C C34U	< 1e-05		< 1e-05	< 1e-05
A14G U56A C67A	0.00127 ± 0.00033		0.00567 ± 0.0018	0.00817 ± 0.0024
A15U G43U U56A C68A	0.000115 ± 3.5e-05			0.00532 ± 0.0014
G13U G41U C61G C71G	< 1e-05		< 1e-05	< 1e-05
A14C C50G C70G	0.000127 ± 3.4e-05	7.94e-05 ± 1.8e-05	0.000437 ± 0.00014	0.000126 ± 3.1e-05
G29A C50A A53C	< 1e-05			
A15G U55A G62U G63C	< 1e-05		< 1e-05	
U31C C34U C71U	< 1e-05		< 1e-05	< 1e-05
A12G G40A A42C	< 1e-05			< 1e-05
G13C A52G C70G	0.000297 ± 0.00012		0.000164 ± 5.2e-05	7.21e-05 ± 3e-05
U30G A39U G60U	< 1e-05			< 1e-05
A12C G37U C50G U54G	4.97e-05 ± 2.2e-05			9.24e-05 ± 3.8e-05
A15C A33U A36C A48C	< 1e-05		< 1e-05	< 1e-05
A12U A15G A36U	< 1e-05			
A14C U30G G41C A53G	< 1e-05			< 1e-05
A14C G35A	< 1e-05	< 1e-05	< 1e-05	< 1e-05
C16G A36U	< 1e-05		< 1e-05	< 1e-05
G29U G44C	< 1e-05			
A15G U45A U56G A64C C70A	< 1e-05		< 1e-05	< 1e-05

Variant	self-cleavage kobs at 160 uM GlcN6P (glucosamine-6-phosphate [1]) [s⁻¹]	self-cleavage kobs at 10000 uM GlcN6P (glucosamine-6-phosphate [2]) [s⁻¹]	self-cleavage kobs at 640 uM GlcN6P (glucosamine-6-phosphate [3]) [s⁻¹]	self-cleavage kobs at 2500 uM GlcN6P (glucosamine-6-phosphate [4]) [s⁻¹]
A12C G51U C58G C61A	< 1e-05			
A14G U49A U56A G62A C71U	< 1e-05			
G13U C34A G40U C58A	< 1e-05		< 1e-05	
G13A G35A G41U C68U	< 1e-05		< 1e-05	< 1e-05
A12C U65G	0.000115 ± 2.1e-05		0.000543 ± 8.2e-05	0.00157 ± 0.00024
G29U A33U U54G	< 1e-05			
U30C G40U U65G	< 1e-05			
U30G U47G	0.000169 ± 4.9e-05		0.00043 ± 0.00012	0.00098 ± 0.0002
C11U U46G C50G	5.55e-05 ± 1.9e-05		6.4e-05 ± 1.8e-05	
C16A G37C G59C	< 1e-05		< 1e-05	
C11U U56A G66A	4.3e-05 ± 1.4e-05		8.42e-05 ± 1.7e-05	0.000197 ± 4.1e-05
A15U G40U A48C	< 1e-05		< 1e-05	
C16U G41C G43C A48U U57C	< 1e-05			< 1e-05
A14U A36C A64U	< 1e-05	< 1e-05	< 1e-05	
G26U G29A U54A C70U C71U	0.000121 ± 3.5e-05			5.37e-05 ± 2.3e-05
A14C U55G C67U	0.00016 ± 4.2e-05		0.000309 ± 9.8e-05	0.000399 ± 0.00015
U30C U56C A64U	< 1e-05		< 1e-05	
G29C G43C C70G	< 1e-05		< 1e-05	
C16U A39C A48U	< 1e-05			
U31C U45A C67A	0.000102 ± 3e-05		0.000203 ± 4.8e-05	0.000723 ± 0.00023
G29U C34U U46G U47G G63A	< 1e-05		< 1e-05	< 1e-05
A15U A33G U47G U54G C67U C71A	0.000235 ± 8.9e-05		0.000303 ± 8.2e-05	
G29C A36U G43C	< 1e-05		< 1e-05	
A14G A33C U46G C58U G59U	< 1e-05		< 1e-05	< 1e-05
